# Data taken from patent publication US20180282426A1 (NOVIMMUNE S A, published 2018).
# T1: recombinant soluble MD-2 purified from baculovirus-infected insect cell supernatants (UniProt Q9Y6Y9 19-160)
# T1 construct: Expressed in Sf9 cells, purified on NiNTA, coated at 5 ug/ml in the direct ELISA; not shown: C-terminal FLAG and 6xHIS tags
# T1 sequence (looked up): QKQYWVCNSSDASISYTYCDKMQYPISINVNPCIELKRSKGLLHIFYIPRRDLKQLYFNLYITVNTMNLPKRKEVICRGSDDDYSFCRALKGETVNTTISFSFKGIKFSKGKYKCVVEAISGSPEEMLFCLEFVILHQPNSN
# T2: MD-2 alone in transfected HEK 293 cell lysates/supernatants (UniProt Q9Y6Y9 19-160, limits assumed)
# T2 construct: not shown: C-terminal FLAG and 6x Histidine tags
# T2 sequence (looked up): T1 sequence (looked up)
# B1: 18H10 monoclonal antibody (antibody, IgG2b, V domains shown)
# VH: QVQLQQSGADLVRPGALVKLSCTASGFNIKDSYIHWVKKRPEWGLEWIGWTDPENVNSIYDPRFQGKASITADTSSNTAFLQLTSLTSEDTAVYYCARGYNGVYYAMDYWGQGTTVTVSS
# VL: QIVLTQSPSIMSASLGEEITLTCSASSSVIYMHWYQQKSGTSPKLLIYRTYNLASGVPSRFSGSGSGTFYSLTISSVEAEDAADYYCHQWSSFPYTFGGGTKLEIKR
# notes: also called 18H10 MAb; 18H10 mouse MAb
# Experiments:
# [1] = target: T1, recombinant soluble MD-2 purified from …; assay: direct ELISA, MD-2 coated at 5 ug/ml
# Protocol: Recombinant soluble MD-2 with C terminal FLAG and histidine epitope tags was coated at a concentration of 5 μg/ml in 50 μl PBS on ELISA plates (Nunc Maxisorp). Wells were blocked with 200 μl PBS 2% BSA and subsequently incubated with the appropriate MAb at the indicated concentration in PBS 1% BSA. Following 3 wash steps with PBS 0.05% Tween 20, 50 μl HRP conjugated goat anti-mouse IgG (H+L) at a 1:5000 dilution was added to the wells. […] Plates were read at a wavelength of 650 nm.
# Using direct ELISA, no binding of 18H10 to recombinant soluble MD-2 generated with the baculovirus expression system was detected (FIG. 5a).
# [2] = target: T3, human TLR4/MD-2 complex on the surface of transfected CHO cells (human, UniProt O00206 24-839; Q9Y6Y9 19-160); assay: flow cytometry, mock transfected vs. TLR4/MD-2 transfected cells
# T3 construct: whole, on cells; also called TLR4/MD-2 transfected CHO cells; hTLR4/MD-2 transfected CHO cells
# [3] = target: T4, human TLR4 and human MD-2 on transiently transfected HEK 293 cells (human, UniProt O00206 24-839; Q9Y6Y9 19-160); assay: FACS on transiently transfected HEK 293 cells
# T4 construct: whole, on cells; also called human TLR4/MD-2 complex
# Protocol: FIGS. 4A-4L are a series of graphs depicting the specificity of the 18H10 monoclonal antibody for MD-2. The specificity of the 18H10 antibody is shown by flow cytometry analysis of HEK 293 cells transiently transfected with either human TLR4 and human MD-2 (FIG. 4A, FIG. 4E and FIG. 4I); rabbit TLR4 and rabbit MD-2 (FIG. 4B, FIG. 4F and FIG. 4J); human TLR4 and rabbit MD-2 (FIG. 4C, FIG. 4G and FIG. 4K); or rabbit TLR4 and human MD-2 (FIG. 4D, FIG. 4H and FIG. 4L). Cells were incubated with either α-FLAG™ antibody (to detect TLR4 expression); α-C-myc antibody (to detect MD-2 expression) or the 18H10 monoclonal antibody, followed by an APC-coupled α-mouse (H+L) antibody.
# FIGS. 12A-12L is a series of graphs depicting the specificity of the 16G7 monoclonal antibody for TLR4. […]
# HEK 293 cells were plated in 6 well plates at a density of 2.5×10⁵ cells/well in 2 ml culture medium containing 10% FBS. […] 48 hours post-transfection, cells were stained with the appropriate monoclonal antibody (as indicated in FIGS. 4A-4L) and an APC-coupled goat anti-mouse IgG (H+L) antibody (Molecular Probes) and analyzed using the FACScalibur in the FL-4 channel.
# [4] = target: T5, human TLR4 alone in transfected HEK 293 cells (human, UniProt O00206 24-839); assay: sandwich ELISA, capture on anti-FLAG M2, biotinylated 18H10
# T5 construct: whole, on cells; also called TLR4 alone in transfected cell lysates
# Protocol: (§1) For sample preparation, HEK 293 cells were transfected with the appropriate plasmid constructs using the Fugene 6™ transfection reagent as described in paragraph G above. 48 hours post-transfection, cells were collected and cleared by centrifugation. Cells were subsequently incubated with biotinylated 18H10 (10 μg/ml) and lysed in 20 mM Tris pH 7.4, 150 mM NaCl, 1% NP40 containing COMPLETE™ protease inhibitors (Roche).
# (§2) To perform the sandwich ELISA, Nunc maxisorp plate wells were coated with 50 μl of the anti-FLAG™ M2 MAb (Sigma) at a concentration of 5 μg/ml in PBS. Wells were blocked with 200 μl PBS 2% BSA and subsequently incubated with 50 μl of the appropriate samples at the indicated dilution. Wells were washed three times with 200 μl PBS 0.05% Tween 20 and incubated with 50 μl of the appropriate antibody (10 μg/ml for biotinylated 18H10 and 12D4, 1 μg/ml for the polyclonal anti-MD-2 […]). Following a wash step as above, wells were incubated with 50 μl of the appropriate detection antibody (HRP conjugated streptavidin at a dilution of 1:1500 for the biotinylated MAbs and HRP conjugated anti-rabbit IgG (H+L) at a dilution of 1:5000 for the polyclonal rabbit Ab). […] Plates were read at a wavelength of 650 nm.
# [5] = target: T2, MD-2 alone in transfected HEK 293 cell …; assay: as above
# Protocol: as §1, §2
# [6] = target: T6, human TLR4/MD-2 complex in transfected HEK 293 cells (FLAG-TLR4 with MD-2-FLAG-6xHis) (human, UniProt O00206 24-839; Q9Y6Y9 19-160); assay: sandwich ELISA, capture on anti-FLAG M2, biotinylated 18H10 with streptavidin-HRP
# T6 construct: whole, on cells; also called TLR4/MD-2 transfected HEK 293 cells; hTLR4/MD-2 transfected HEK 293 cells
# Protocol: as §1, §2
# T3 sequence (O00206 24-839, one chain of several): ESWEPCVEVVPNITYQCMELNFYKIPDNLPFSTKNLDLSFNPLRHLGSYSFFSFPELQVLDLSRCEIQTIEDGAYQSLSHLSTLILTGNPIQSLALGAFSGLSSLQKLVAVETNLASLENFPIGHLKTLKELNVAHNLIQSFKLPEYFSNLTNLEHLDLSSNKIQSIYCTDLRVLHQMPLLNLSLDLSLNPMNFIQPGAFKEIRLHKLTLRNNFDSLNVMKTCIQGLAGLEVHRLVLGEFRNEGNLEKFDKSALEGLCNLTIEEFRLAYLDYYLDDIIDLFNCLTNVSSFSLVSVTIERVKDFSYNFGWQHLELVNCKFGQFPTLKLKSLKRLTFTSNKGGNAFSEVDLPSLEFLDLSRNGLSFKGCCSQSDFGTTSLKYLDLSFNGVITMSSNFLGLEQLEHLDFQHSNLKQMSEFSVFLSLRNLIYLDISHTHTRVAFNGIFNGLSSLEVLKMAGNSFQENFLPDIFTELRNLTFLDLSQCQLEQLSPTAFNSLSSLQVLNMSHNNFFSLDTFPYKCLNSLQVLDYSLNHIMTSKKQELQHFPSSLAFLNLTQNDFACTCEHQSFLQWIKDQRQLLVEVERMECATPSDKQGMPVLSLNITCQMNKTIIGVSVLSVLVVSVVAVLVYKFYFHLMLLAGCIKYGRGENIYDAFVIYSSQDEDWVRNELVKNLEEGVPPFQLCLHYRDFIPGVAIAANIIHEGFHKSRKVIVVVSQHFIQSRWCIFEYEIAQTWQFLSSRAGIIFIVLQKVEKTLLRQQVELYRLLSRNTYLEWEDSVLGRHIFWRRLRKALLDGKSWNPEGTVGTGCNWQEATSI
# T5 sequence (O00206 24-839): as the sequence (O00206 24-839, one chain of several) above
# T6 sequence (O00206 24-839, one chain of several): as above
# T4 sequence (O00206 24-839, one chain of several): as above
binder,measurement,setting,value
B1,binding result,[1],no binding
same,binding result,[2],binds
same,binding result,[3],binds
same,binding result,[4],no binding (tested: 10 µg/ml biotinylated 18H10)
same,binding result,[5],no binding (tested: 10 µg/ml biotinylated 18H10)
same,binding result,[6],binds
